Assay: yeast display, Sf9 membrane polyspecificity reagent, FACS + sequencing; frameworks hold sequencing errors
How it was run: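 Synthetic nanobody libraries on Saccharomyces cerevisiae BJ5465 were galactose-induced for 36–48 hours, stained 1 hour at 4 °C with 10% biotinylated, detergent-solubilized Sf9 membrane reagent and enriched on streptavidin microbeads. FACS then separated cells into low and high (top ~1%) gates by anti-HA (expression) and streptavidin (reagent binding) fluorescence. Genes were colony-PCR amplified, MiSeq 2 × 250 sequenced and CDR-length filtered. A clone's polyreactivity label is that of its gate of origin.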

| Sequence | polyreactivity (PSR sort gate) |
| --- | --- |
| QVQLVESGGVFVQAGGTLRLSCAASGITLNGYVMGWYRQAPGKEREFVAVITTRGGSTYYADSVKGRFTISRDNAKNTVYLQMNSLNPEDTAVYYCAARYVREYNYWGQGTQVTVSS | high polyreactivity |
| QVQLVESGGGLVQAGGSLRLSCAASGANFGRNDMGWYRQAPGKERELVAAISWSGGRTYYADSVKGRFTISRDNAKNTVYLQMISLKPEDTAVYYCNRDYYVGRYDYWGQGTQVTVSS | high polyreactivity |
| QVQLVESGGGLVQAGGSLRLSCAASGSTFCFYAMGWYRQSPGKERELVATITIGGRTYADSVKGRFTISRDNAKNTLYLQMNSLKPEDTAVYYCNARNHVQVLFRRDYWVQGTQVTVSS | low polyreactivity |
| QVQLVESGGGLVQAGGSLRLSCAASGRIFRSNAMGWYRQAPGKERELVATISRRGGSTYYADSVKGRFTISRDNAKNTVYLQMNSLKPEDTAVYYCNTRNSGSLDLYNTMDYWGQGTQVTVSS | high polyreactivity |
| QVQLVESGGGIVQAGGSLRLICAASGSIFDGYAMGWYRQAPGKERELVAAISASGVRTYYADSVKGRFTISRDNAKNTVYLQMKSLKPEDTAVYYGAAAVYYGQSVWYYYWGQGTQVTVSS | high polyreactivity |
| QVQLVESGGGLVQAGGSLRLSCAASGLTFYTNAKGWYRQAPGKEREFVDAITSSGGRKYYADSVKGRFTISRDNAKNTVYLQMNSLKPEDTAVYYCAADARRPRIPEMYYWGQGTQVTVSS | high polyreactivity |
| QVQLVESGGGLVQAGGSLRLSCAASGSIFRYYAMGWYRQAPGKERELVARISRNAGRTYYADSVKGRFTISRDNAKNTVYLQMNSLKPEDTAVYYCAADGSKPYAMDYWGQGTQVTVSS | high polyreactivity |
| QVQLVESGGGLVQAGGSVRLSCAASGRIFSRKAMRWYIQAPGKERELVAAISRSGTSTYYADSVKGRFTISRDNAKNTVYLQMNSLKPEDNAVYYCAADYPAVISIRRYDYWGQGTQVTVSS | low polyreactivity |
| QLQLVESGGGLVQAGGSLRLSCASGLTFYWYAMGWYRQAPGKERELVAAINVRGGSTYYADSVKGRFTISRDNAKNTVYLQMNSLKPEDTAGYDCASYYPGFSYRYDYWGQGSQVTVSS | low polyreactivity |
| QVQLVESRGGLVQAGGSLRLSCAASGITFGRNTMGWYRQAPGKERELVAAIDSGGNTYAESVKGRFTISRDNAKKTVYFQMNSLKPEDTAVYYCAVDGGEFSSYGYWGQGSQVTVSS | low polyreactivity |
| QVQLVESGGGLVQAGGSLRLSCAASGFISGFYGMGWYIQAPGKEREFVAAIDFIDGDTYYADSVKGRFTISRDKAKNTVYLQMNSLKPEDTAVYYCAADGSFCQFDYWGQGTQVTVSS | low polyreactivity |
| QVQLVESGGGLVLAGGSLRLSCAASGGIFYGYAMGWYREAPGKEREMVAAISSTGGRTYYADSVKGRFTISRDNAKNTVYLQMNSLKPEETAVYYCAAEDFTRQFEYWGQGTQVTVSS | low polyreactivity |
| QDQLVESGGGLVQAGGSLRLSFAASGSTFANYAMVWYRQAPGKEREWVAAISFSTVSTYYADSVKGRFTISRDNAKNTVYIQMNSLKPEDTAVYYCNTYYYGSRPSEDYWGQGTQVTVSS | high polyreactivity |
| QVQLVESGGGIVQVGRSLPISSAAYGRTFVYYAMGWYRQAPGKERELVARISRSGGRTFYADSVKGRFTISRDNAKNTVYLVLYSQKPEDTAVYYCNSSDVHVTTYGYWGQGTQVSVSS | low polyreactivity |
| QVQLVESGGGLVQAGGSLRLSCAASGYTFEAYAMGWYRQAPGKERELVAAINYSGGSTYADSVKGRFTISRDNAKNTVYLQMNSLKPEDTAVYYCAAYGTKRYPYDYWGQGTQVTVSS | low polyreactivity |
| QVQLVESGGGLVHAGGSLRLSCAASGSIFGWYAMGWYRQAPGKERELVASISWSGGGTYYADSVKGRFTISRDNAKNTVYLQMKSLKPEDTAVYYCAAVYIWRYGIRGGYYWGQGTQVSVSS | high polyreactivity |
| QVQLVESGGGLVQAGGSLRLSCAASGRTGVNAIGWYRQAPGKERELVAAINNGDSTYYADSVKGRFTISRDNAKNTVYLQMNSLKPEDTAVYYCAAGLDEGDYWQESDYWGQGTQVTVSS | low polyreactivity |

From the nanobody polyreactivity screen of Harvey et al. (2022)
